Laboratory results reported in patent US7341859B2, “ADH from Rhodococcus erythropolis” (Degussa AG, priority 2002, dated 2008).

Tests used:
[1] = test system: alcohol dehydrogenase from R. erythropolis (RE-ADH, new ADH expr. in E. coli); assay: Relative/specific activity of substrates with the new ADH from R. erythropolis (photometric NADH test); type: biochemical, Rhodococcus erythropolis
Description: In this case, as is normal, the measured activity for one compound is set at 100% and the activity/activities of the other compound(s) is determined in relation thereto. From the relative activities when compared with other substrates, it can then be recognised whether such another substrate is accepted to a greater or lesser extent.
A first purification can be achieved by anion exchange chromatography (MonoQ-Material, Pharmacia) (mobile buffer: 50 mM TEA buffer, pH 7.0; elution with a NaCl gradient of 0-1 M).
For the activity test, the cells were harvested (15 min centrifuging at 14000 rpm, 4° C.) and degraded after resuspension with 100 mM KPi buffer, pH 6.0 (1.5 ml of buffer per 1 g of cells). For the purposes of degradation, the suspension was treated with ultrasound (2×30 sec. power 100%, pulse 50), then the cell broth was centrifuged. The supernatant liquid is the soluble crude extract, the sediment is the insoluble fraction.
For a comparison using relative activities, the activity of the two enzymes was given with respect to phenylacetaldehyde=100%.
In this case, the relative activity is given with respect to the activity measured for acetophenone.

[2] = test system: aldehyde reductase from Corynebacterium sp.; assay: Activity of substrates with aldehyde reductase from Corynebacterium sp. (Itoh et al.); type: biochemical, Corynebacterium sp. ST-10; settings: Corynebacterium enzyme
From the text: When comparing the gene sequence for ADH from R. erythropolis with sequences in the databases, it was shown that RE-ADH has a high degree of homology with an aldehyde reductase from Coyrnebacterium sp. In the publication on aldehyde reductase, a number of biochemical properties of this enzyme are described (Itoh, N., R. Morihama, J. Wang, K. Okada and N. Mizuguchi (1997), Purification and characterisation of phenylacetaldehyde reductase from a styrene-assimilating Corynebacterium strain, ST-10, Appl. Environ. Microbiol. 63: 3783-378). Some of the (aldehyde) substrates described in that publication were therefore also converted using RE-ADH and compared using the relative activities of the reductase. […] Further comparisons of the two enzymes using the published data material are not meaningful because the enzyme from Corynebacterium was tested exclusively with phenylacetaldehyde as substrate, but RE-ADH has hitherto been characterised using p-Cl-acetophenone.
A comparison of RE-ADH with the aldehyde reductase from Corynebacterium sp. with regard to the activity for acetophenone reduction and a few aldehydes. Data on the enzyme from Corynebacterium were taken from the publication by Itoh et al. (see above), data on RE-ADH are our own measurements (homogeneous=very pure homogeneous enzyme). […]

[3] = test system: aldehyde reductase from Corynebacterium sp.; settings: phenylacetaldehyde = 100%; cited from earlier work
[4] = Thermal stability of the ADH (activity after incubation); type: physicochemical
Description: The advantageous aspects and differences mentioned above with regard to improvement in the stability, as compared with previously known alcohol dehydrogenases from R. erythropolis are summarised in Table 5 and in FIG. 4. For better comparison, the relevant enzyme activity measured at 45° C. was set at 100%.
Here, for the very pure new alcohol hydrogenase, high thermal stabilities were produced over a wide temperature range extending up to 65° C. The stability values in this case are […]

[5] = Specific enzyme activity, standard test with p-Cl-acetophenone and NADH; type: biochemical
Description: For elution, a falling ammonium sulfate gradient (1-0 M) was used; the desired enzyme then eluted at almost 0 M ammonium sulfate. […] The desired protein eluted on application of a falling ammonium sulfate gradient (1-0 M) at about 0.1 M ammonium sulfate. […] The supernatant liquid is the soluble crude extract, the sediment is the insoluble fraction. […] For expression, E. coli BL21 (DE3) was used as host. Recombinant cells were multiplied in the medium LBcam at 37° C. At an OD600 of 0.5, expression was induced with 25 μM IPTG, then the cells were multiplied for 12 h at 30° C. The cells were harvested after centrifuging for 15 min at 5000 rpm, the sediment was resuspended in 100 mM Kpi buffer (1.5 ml per 1 g of cells) and broken down using ultrasound.

[6] = pH optimum for the activity and stability of RE-ADH; type: biochemical; settings: 4° C. and room temperature, 1 and 2 days, pH range 7.5-8.5, tris-HCl buffer 0.1 M
From the text: The pH optimum for RE-ADH is at pH 6.0 for the reduction reaction (measured using p-Cl-acetophenone).

[7] = Activity of immobilised RE-ADH (Eupergit, Ni-NTA) with p-Cl-acetophenone, GC; type: biochemical; settings: for activity of the immobilised enzyme: 30° C.
Description: Eupergit C® and Eupergit C 250L® were used in parallel batches, each being loaded with partially purified RE-ADH (literature reference relating to Eupergit immobilisation: E. Katchalski-Katzir, D. M. Kraemer, J. Mol. Catal. B: Enzym. 2000, 10, 157). The following was used for the test: • 1.5 mM p-Cl-acetophenone (dissolved in 0.1 M Na formate buffer, 0.05 M KPi buffer, pH 6.0) • 0.5 mM NAD • 30 mg immobilisate • 1 U/ml formate dehydrogenase (FDH)
These test materials were incubated at 30° C., a sample (100 μl) was taken from each mix after 0, 5, 10 and 15 min, this was extracted with 100 μl of chloroform and the chloroform phase was analysed for any phenylethanol formed using gas chromatography. The activity of the immobilised enzyme can be calculated from the kinetics of phenylethanol formation and values of 11.8 U/g support for Eupergit C® and 8 U/g of support for Eupergit C 250L® were obtained. With respect to the amount of enzyme used, this corresponded to coupling yields of 1% (Eupergit ®) and 0.8% (Eupergit C 250L®). • b) Immobilising on Ni-NTA
Recombinant E. coli JM105/pRE-ADH5 cells were broken down in an imidazole-containing buffer (50 mM NaH2PO4; 300 mM NaCl; 10 mM imidazole, pH 8.0) and a crude extract was prepared in the way described previously. For immobilisation, 1 ml of enzyme solution (13 U/ml RE-ADH, crude extract from the culture E. coli JM105pRE-ADH5; 8 mg/ml of protein) was added to 300 mg of Ni-NTA support material (Quiagen) and incubated for 10 min at 0° C. (ice bath). After centrifuging the suspension, 3 U/ml could still be detected as residual activity in the supernatant liquid as non-bonded enzyme. The immobilisate was reacted with p-Cl-acetophenone to detect the bonded activity.
For this purpose, the following were used per 1 ml of total volume:
3 mM p-Cl-acetophenone (substrate; dissolved in 100 mM Na formate, 50 mM Kpi buffer pH 6.0)
1 U formate dehydrogenase
The test batch was incubated in the same way as described above (immobilisation on Eupergit®), samples were taken and these were analysed using gas chromatography. […] Taking into account the fact that this test was performed with 30 mg of immobilisate and that 10 U RE-ADH had bonded to 300 mg of support material, 1 U was thus introduced in the test batch with the 30 mg. Since an activity of 0.21 U was reported, an immobilisation yield of 21% was obtained. The enantiomer purity (ee value) of the alcohol formed with the immobilisate was >99%.

## CCCCCCCC=O [Caprylic aldehyde]
[1]; RE-ADH
  activity towards caprylic aldehyde as multiple of that towards acetophenone (so in the source): about 5 times
[1]; phenylacetaldehyde = 100%
  relative activity: 522%
[2]
  activity towards caprylic aldehyde as multiple of that with respect to acetophenone (so in the source): 12 times
[3]
  relative activity: 1220%

B1: RE-ADH: alcohol dehydrogenase (ADH, RE-ADH) from Rhodococcus erythropolis, Seq. ID NO: 2, tetrameric; also with C-terminal His-Tag or immobilised (protein, listed as Rhodococcus erythropolis)
chain: MKAIQYTRIGAEPELTEIPKPEPGPGEVLLEVTAAGVCHSDDFIMSLPEEQYTYGLPLTLGHEGAGKVAAVGEGVEGLDIGTNVVVYGPWGCGNCWHCSQGLENYCSRAQELGINPPGLGAPGALAEFMIVDSPRHLVPIGDLDPVKTVPLTDAGLTPYHAIKRSLPKLRGGSYAVVIGTGGLGHVAIQLLRHLSAATVIALDVSADKLELATKVGAHEVVLSDKDAAENVRKITGSQGAALVLDFVGYQPTIDTAMAVAGVGSDVTIVGIGDGQAHAKVGFFQSPYEASVTVPYWGARNELIELIDLAHAGIFDIAVETFSLDNGAEAYRRLAAGTLSGRAVVVPGL
modifications: optional C-terminal His-tag or immobilisation
notes: ID NO: 2, tetrameric; also with C-terminal His-Tag or immobilised
[4]; 10 min at 45° C.
  enzyme activity after incubation: (110 U/ml)
  relative enzyme activity after incubation: 95%
[4]; 10 min at 50° C.
  enzyme activity after incubation: (110 U/ml)
  relative enzyme activity after incubation: 95%
[4]; 10 min at 55° C.
  enzyme activity after incubation: (115 U/ml)
  relative enzyme activity after incubation: 99%
[4]; 10 min at 60° C.
  enzyme activity after incubation: (112 U/ml)
  relative enzyme activity after incubation: 97%
[4]; 10 min at 65° C.
  enzyme activity after incubation: (116 U/ml)
  relative enzyme activity after incubation: 100%
[5]; crude extract from R. erythropolis
  activity in the crude extract: about 2.5 U/mg
[5]; hexa-histidine group at the C-terminus, pRE-ADH5 in E. coli JM105
  enzyme activity: 7 U/mg
[5]; plasmid pKK223-3, E. coli JM 105, soluble fraction
  ADH activity in the crude extract: 6 U/mg
[5]; plasmid pKK223-3, E. coli JM 105, soluble fraction, listed as ADH according to the invention
  ADH activity in the crude extract: about 6 U/mg
[5]; vector pKA1, E. coli BL21 (DE3), cell-free crude extract
  ADH activity in the crude extract: 70 U/mg
[5]; vector pKA1, E. coli BL21 (DE3), cell-free crude extract, listed as ADH
  ADH activity in the crude extract: 70 U/mg
[5]; vector pKA1, E. coli BL21 (DE3), cell-free crude extract, listed as ADH according to the invention
  ADH activity in the crude extract: about 70 U/mg
[6]
  deactivation on storage: no deactivation
[7]; His-Tag enzyme on Ni-NTA
  enantiomer purity (ee value) of the alcohol formed with the immobilisate: > 99%
[7]; His-Tag enzyme on Ni-NTA, 30 mg immobilisate, 3 mM p-Cl-acetophenone
  activity of the immobilisate: 0.21 U
[7]; immobilised on Eupergit C 250L
  activity of the immobilised enzyme: 8 U/g of support
[7]; immobilised on Eupergit C
  activity of the immobilised enzyme: 11.8 U/g support
